The source of these data is US20230183291A1, “ANTI-INFECTIVE BICYCLIC PEPTIDE LIGANDS” (priority 2020, published 2023).

The target of experiment [1] is ACE2 protein (Homo sapiens (Human)), Q9BYF1. As to the kind of experiment: fluorescence polarisation direct binding, 1 nM fluorescein tracer, ACE2 titrated. A general note: Fluorescence polarisation rises when a labelled molecule tumbles more slowly, as on binding a larger partner.
The target of experiment [2] is Biotinylated Human ACE2, His, Avitag protein (ACROBiosystems, AC2-H82E6) (human), Q9BYF1. As to the kind of experiment: SPR single cycle kinetics, ACE2 captured on CAP chip, peptide analyte; geometric mean.
Biotinylated Human ACE2, His, Avitag protein (ACROBiosystems, AC2-H82E6) (human), Q9BYF1, sequence (Q9BYF1 18-740 limits assumed): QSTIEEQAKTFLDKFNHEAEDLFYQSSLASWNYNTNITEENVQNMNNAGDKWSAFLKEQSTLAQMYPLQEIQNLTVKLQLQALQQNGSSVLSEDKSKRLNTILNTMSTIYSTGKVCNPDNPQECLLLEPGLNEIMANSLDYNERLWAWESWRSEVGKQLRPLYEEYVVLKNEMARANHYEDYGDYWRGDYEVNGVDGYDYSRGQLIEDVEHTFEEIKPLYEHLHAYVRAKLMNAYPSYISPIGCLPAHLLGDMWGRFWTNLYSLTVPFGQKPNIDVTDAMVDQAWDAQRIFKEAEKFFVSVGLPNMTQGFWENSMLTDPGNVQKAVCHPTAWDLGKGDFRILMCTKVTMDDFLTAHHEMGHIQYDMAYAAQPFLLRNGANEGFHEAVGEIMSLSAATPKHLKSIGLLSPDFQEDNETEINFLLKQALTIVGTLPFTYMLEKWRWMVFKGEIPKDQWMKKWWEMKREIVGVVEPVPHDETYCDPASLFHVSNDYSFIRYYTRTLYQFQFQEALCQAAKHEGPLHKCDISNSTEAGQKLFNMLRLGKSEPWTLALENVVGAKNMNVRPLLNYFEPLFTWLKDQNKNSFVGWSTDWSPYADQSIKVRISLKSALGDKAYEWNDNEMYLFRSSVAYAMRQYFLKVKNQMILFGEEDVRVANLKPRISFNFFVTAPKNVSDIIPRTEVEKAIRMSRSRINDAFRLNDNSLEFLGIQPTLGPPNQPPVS

Numbered stars: 1 amine (or outer) side, 2 acyl side, 3 side chain; on linkers, the order of the positions; unused ones are H or OH. Bridge positions count the residues as written; N and C are the ends. Square brackets hold non-standard residues; d marks the D form. Primed or numbered codes have the meaning given here. Ends that are not written are not given here. Arg(Me)′ = delta-N-methyl arginine, CN(CCC[C@H](N[*:1])C(=O)[*:2])C(=N)N; TATA = O=C(CC[*:1])N1CN(C(=O)CC[*:2])CN(C(=O)CC[*:3])C1; 1Nal = N[C@@H](Cc1cccc2ccccc12)C(=O)O; 2Nal = N[C@@H](Cc1ccc2ccccc2c1)C(=O)O; hArg = N=C(N)NCCCC[C@H](N)C(=O)O; Aib = CC(C)(N)C(=O)O; Sar = CNCC(=O)O

ACE2 protein (Homo sapiens (Human)), Q9BYF1, sequence (Q9BYF1 18-740 limits assumed): as above

B1: BCY15285 (peptide)
peptide: ACTRPWCHSLLPRATCA[Sar][Sar][Sar][Sar][Sar][Sar]K(fluorescein)
modifications: linker 2-7-16 via TATA
On to B1, for which, in experiment [1], the Kd – broadly, the constant that tells how readily two partners part at equilibrium – was 157 nM. This lies in the sub-micromolar range.

B2: BCY16874 (peptide)
peptide: ACNAVLCSWA[hArg]ANSFCA[Sar][Sar][Sar][Sar][Sar][Sar]K(fluorescein)
modifications: linker 2-7-16 via TATA
For B2, the figures for the Kd in experiment [1] and in experiment [2] were 62 nM and 4.1 nM, respectively.

B3: BCY16866 (peptide)
peptide: ACNAVLCS[1Nal]ARANSFCA[Sar][Sar][Sar][Sar][Sar][Sar]K(fluorescein)
modifications: linker 2-7-16 via TATA
As to B3, the Kd in experiment [1] is 2.6 nM; in experiment [2], 2.1 nM.

B4: BCY15288 (peptide)
peptide: ACHKFPCRDPQQYLFCA[Sar][Sar][Sar][Sar][Sar][Sar]K(fluorescein)
modifications: linker 2-7-16 via TATA
B4: in experiment [1], the dissociation constant (Kd) came out at 225 nM.

B5: BCY15284 (peptide)
peptide: ACGRQFCHTLMPRHLCA[Sar][Sar][Sar][Sar][Sar][Sar]K(fluorescein)
modifications: linker 2-7-16 via TATA
Take B5: in experiment [1], the Kd worked out at 65.5 nM.

B6: BCY16872 (peptide)
peptide: ACNAVLCSW[Aib]RANSFCA[Sar][Sar][Sar][Sar][Sar][Sar]K(fluorescein)
modifications: linker 2-7-16 via TATA
On to B6, for which the Kd in experiment [1] came to 2.9 nM; in experiment [2] it was 8.9 nM.

B7: BCY16871 (peptide)
peptide: ACAN[Aib]VLCSWARANSFCA[Sar][Sar][Sar][Sar][Sar][Sar]K(fluorescein)
modifications: linker 2-8-17 via TATA
For the molecule B7, the values for the Kd in experiment [1] and in experiment [2] were 5.8 nM and 7.7 nM, respectively.

B8: BCY15283 (peptide)
peptide: ACVRSHCSSLLPRIHCA[Sar][Sar][Sar][Sar][Sar][Sar]K(fluorescein)
modifications: linker 2-7-16 via TATA
Molecule B8 displayed a Kd in experiment [1] of 21.9 nM.

B9: BCY15423 (peptide)
peptide: ACNAVLCSWARANSFCA[Sar][Sar][Sar][Sar][Sar][Sar]K(fluorescein)
modifications: linker 2-7-16 via TATA
Regarding B9, the values for the equilibrium dissociation constant (Kd) in experiment [1] and in experiment [2] were 5.53 nM and 3.4 nM, respectively.

B10: BCY16867 (peptide)
peptide: ACNAVLCS[2Nal]ARANSFCA[Sar][Sar][Sar][Sar][Sar][Sar]K(fluorescein)
modifications: linker 2-7-16 via TATA
As for B10, the dissociation constant Kd in experiment [1] turned out to be 50.7 nM.

B11: BCY15419 (peptide)
peptide: ACAPILCRWAERQGYCA[Sar][Sar][Sar][Sar][Sar][Sar]K(fluorescein)
modifications: linker 2-7-16 via TATA
The molecule B11 showed a Kd in experiment [1] of 20.4 nM. Compared with the last molecule, the Kd is about 2.5-fold lower.

B12: BCY16863 (peptide)
peptide: ACNAVLCSWA[Arg(Me)′]ANSFCA[Sar][Sar][Sar][Sar][Sar][Sar]K(fluorescein)
modifications: linker 2-7-16 via TATA
In experiment [2], B12 registered a Kd of 3.5 nM.

B13: BCY15422 (peptide)
peptide: ACLEVYKCWRGKCA[Sar][Sar][Sar][Sar][Sar][Sar]K(fluorescein)
modifications: linker 2-8-13 via TATA
With B13, the Kd in experiment [1] was found to be 130 nM.

B14: BCY15420 (peptide)
peptide: ACLELYQCWRGKCA[Sar][Sar][Sar][Sar][Sar][Sar]K(fluorescein)
modifications: linker 2-8-13 via TATA
The molecule B14 gave a Kd in experiment [1] of 98.3 nM.

B15: BCY15421 (peptide)
peptide: ACPSQYKCWRGKCA[Sar][Sar][Sar][Sar][Sar][Sar]K(fluorescein)
modifications: linker 2-8-13 via TATA
In turn, B15 showed a Kd in experiment [1] of 134 nM.
